Measurements as given in patent US6849610.

System: HCMV intact particles AD169 (Human cytomegalovirus AD169)
Experiment: cell_activity
Conditions: 2'-NH2 on all pyrimidines, plaque formation, 1e5 PFU/ml

## GGGAGACAAGAAUAAACGGUCAACUCGAGCCACCCCAUAACCCUCAAUACUCCAGGGAUUGGGUUCGACAUGAGGG [L19]
Viral yield IC50 35±7 nM
  IC50: 35 nM

## GGGAGACAAGAAUAAACGGUCAAUGUGGGUCGUGUUAAGCUUCGGGCUUCGCGCAAAUCUGGGUUCGACAUGAGGG [L66]
Viral yield IC50 18±4 nM
  IC50: 15 nM

## GGGAGACAAGAAUAAACGGUCAAUUACGGUCACCUUACCCCUGGGUGUGCUCUUCCCGGUGGGUUCGACAUGAGGG [L13]
Viral yield IC50 100±20 nM
  IC50: 125 nM
